Data: patent publication US20110014213A1 (JURIDICAL FDN THE CHEMO SERO THERAP RES INS, published 2011)

Legend:
[1] = target: T1, human α9 integrin (human, UniProt Q13797 30-1035); experiment: cell-based or functional assay
T1 sequence: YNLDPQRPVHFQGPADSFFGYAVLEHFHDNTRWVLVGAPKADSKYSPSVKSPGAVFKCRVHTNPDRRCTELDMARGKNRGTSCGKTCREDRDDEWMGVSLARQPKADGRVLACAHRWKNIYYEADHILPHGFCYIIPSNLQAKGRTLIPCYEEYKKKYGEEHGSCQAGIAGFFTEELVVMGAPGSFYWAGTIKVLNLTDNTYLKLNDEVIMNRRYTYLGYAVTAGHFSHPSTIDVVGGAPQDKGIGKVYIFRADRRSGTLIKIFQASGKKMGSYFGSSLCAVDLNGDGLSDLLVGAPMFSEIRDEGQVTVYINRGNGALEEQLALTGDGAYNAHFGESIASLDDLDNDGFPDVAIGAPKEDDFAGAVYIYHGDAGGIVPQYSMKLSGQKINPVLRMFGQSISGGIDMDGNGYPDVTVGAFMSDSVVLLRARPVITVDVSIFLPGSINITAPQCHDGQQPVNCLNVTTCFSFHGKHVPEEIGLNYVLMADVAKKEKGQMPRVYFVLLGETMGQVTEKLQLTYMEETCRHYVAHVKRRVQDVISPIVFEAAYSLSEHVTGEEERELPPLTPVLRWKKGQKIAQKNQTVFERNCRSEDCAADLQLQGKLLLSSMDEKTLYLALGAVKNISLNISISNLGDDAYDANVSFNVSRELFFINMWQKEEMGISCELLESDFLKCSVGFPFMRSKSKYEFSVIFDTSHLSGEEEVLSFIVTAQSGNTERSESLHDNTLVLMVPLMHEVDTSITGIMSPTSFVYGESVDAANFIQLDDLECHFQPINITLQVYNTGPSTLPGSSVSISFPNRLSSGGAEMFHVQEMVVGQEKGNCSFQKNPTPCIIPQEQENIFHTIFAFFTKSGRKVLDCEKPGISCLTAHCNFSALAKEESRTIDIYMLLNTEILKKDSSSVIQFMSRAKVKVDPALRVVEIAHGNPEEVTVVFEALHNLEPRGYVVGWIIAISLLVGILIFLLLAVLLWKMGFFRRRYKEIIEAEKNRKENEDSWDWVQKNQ

[2] = target: T2, mouse α9 integrin (mouse, UniProt B8JK39 29-1036); experiment: cell-based or functional assay
T2 chain: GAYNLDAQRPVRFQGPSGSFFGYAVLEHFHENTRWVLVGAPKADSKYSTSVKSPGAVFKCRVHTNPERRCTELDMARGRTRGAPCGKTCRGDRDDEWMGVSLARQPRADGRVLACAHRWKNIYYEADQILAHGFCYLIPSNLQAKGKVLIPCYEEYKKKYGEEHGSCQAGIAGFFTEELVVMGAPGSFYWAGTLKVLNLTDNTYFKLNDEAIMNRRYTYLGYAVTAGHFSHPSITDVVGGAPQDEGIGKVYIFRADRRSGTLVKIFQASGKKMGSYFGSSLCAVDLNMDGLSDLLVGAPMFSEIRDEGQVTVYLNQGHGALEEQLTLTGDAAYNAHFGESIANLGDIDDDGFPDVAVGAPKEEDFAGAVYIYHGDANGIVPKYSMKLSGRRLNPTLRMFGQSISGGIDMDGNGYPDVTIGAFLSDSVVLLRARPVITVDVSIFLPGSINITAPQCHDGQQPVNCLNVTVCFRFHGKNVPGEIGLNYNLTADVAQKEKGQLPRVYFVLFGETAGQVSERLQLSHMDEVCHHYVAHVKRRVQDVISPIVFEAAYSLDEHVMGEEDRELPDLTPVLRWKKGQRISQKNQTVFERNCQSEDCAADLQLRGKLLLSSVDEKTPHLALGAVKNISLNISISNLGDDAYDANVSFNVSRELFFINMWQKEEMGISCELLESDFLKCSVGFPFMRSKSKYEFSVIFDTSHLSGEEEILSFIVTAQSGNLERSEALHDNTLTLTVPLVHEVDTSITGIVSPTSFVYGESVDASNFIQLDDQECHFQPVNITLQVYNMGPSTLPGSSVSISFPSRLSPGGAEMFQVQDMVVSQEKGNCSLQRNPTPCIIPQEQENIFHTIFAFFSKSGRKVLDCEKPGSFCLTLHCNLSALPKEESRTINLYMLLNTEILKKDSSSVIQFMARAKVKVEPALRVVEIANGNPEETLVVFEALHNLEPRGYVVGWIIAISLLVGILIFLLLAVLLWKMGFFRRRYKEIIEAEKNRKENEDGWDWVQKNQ

[3] = target: T1, human α9 integrin; experiment: cell-based or functional assay; remark: listed apart in the source
[4] = target: T1, human α9 integrin; experiment: Cell ELISA of IgG in culture supernatant, anti-human IgG(Fc) detection
Protocol: CHO/mα9 and CHO were seeded on a 96 well plate (costar) at 2×10⁴ cells/100 μL/well, and incubated overnight at 37° C., 5% CO₂. The medium was suctioned, and the cells were washed with PBS, and reacted with phage antibody diluted with 1% BSA/PBS. The detection was performed by using horse-radish peroxidase (HRP)-labeled anti-M13 antibody (Amersham) and TMB (SIGMA) in combination. The absorbance at wavelengths 450 nm and 650 nm was measured by a microplate reader (Molecular Devices).
SW480/mα9, SW480/hα9 and SW480 were used as antigens, 1% BSA/PBS containing 5% FBS was used as a dilution solution, an HRP-labeled anti-mouse IgG antibody (ZYMED) was used for detection, and the rest was performed under the same conditions as in Example 4.
The IgG expression amount in the culture supernatant was quantified by human IgG quantification ELISA, and the reactivity with human α9 and mouse α9 at each IgG concentration was analyzed by Cell ELISA. HRP-labeled anti-human IgG(Fc) antibody (American Qualex) was used for detection, and the rest was performed under the same conditions as in Example 11.

B1: HA9-107 scFv-Fc (Fc fusion, not shown: a dimerising Fc or GST)
scFv: EVQLVESGGGVVRPGGSLRLSCAASGFAFGDYGMSWVRQAPGKGLEWVSGINWNGGSTGYADSVKGRFTTSRDNAKNSLYLQMNSLRAEDTALYYCARDENYDILTNEYYYGMDVWGQGTTVTVSSGGGGSGGGGSGGGGSQSVVTQPPSVSAAPGQKVTISCSGSSSNIGNNYVSWYQQLPGTAPKLLIYDNNKRPSGIPDRFSASKSGTSATLGITGLQTGDEADYYCGTWDSSLTVWAFGGGTKLTVLG
- IC50 of inhibition of α9-dependent cell adhesion [1]: > 10 µg/mL
- IC50 of inhibition of α9-dependent cell adhesion [2]: 0.067 µg/mL

B2: HA9-143 scFv-Fc (Fc fusion, not shown: a dimerising Fc or GST)
scFv: EVQLVESGGGVVRPGGSLRLSCAASGFAFGEYGMSWVRQAPGKGLEWVSGINWNGGSTGYADSVKGRFTTSRDNAKNSLYLQMNSLRAEDTALYYCARDENYDILTGHYYYGMDVWGQGTTVTVSSGGGGSGGGGSGGGGSQSVVTQPPSVSAAPGQKVTISCSGSSSNIGNNYVSWYQQLPGTAPKLLIYDNNKRPSGIPDRFSASKSGTSATLGITGLQTGDEADYYCGTWDSSLTVWAFGGGTKLTVLG
- IC50 of inhibition of α9-dependent cell adhesion [1]: 0.42 µg/mL
- IC50 of inhibition of α9-dependent cell adhesion [2]: 2.32 µg/mL

B3: MA9-418 scFv-Fc (Fc fusion, not shown: a dimerising Fc or GST)
scFv: EVQLVESGGGVVRPGGSLRLSCAASGFAFGDYGMSWVRQAPGKGLEWVSGINWNGGSTGYADSVKGRFTTSRDNAKNSLYLQMNSLRAEDTALYYCARDENYDILTGAYYYGMDVWGQGTTVTVSSGGGGSGGGGSGGGGSQSVVTQPPSVSAAPGQKVTISCSGSSSNIGNNYVSWYQQLPGTAPKLLIYDNNKRPSGIPDRFSASKSGTSATLGITGLQTGDEADYYCGTWDSSLTVWAFGGGTKLTVLG
- IC50 of inhibition of α9-dependent cell adhesion [1]: > 10 µg/mL
- IC50 of inhibition of α9-dependent cell adhesion [2]: 0.96 µg/mL

B4: HA9-212 scFv-Fc (Fc fusion, not shown: a dimerising Fc or GST)
scFv: EVQLVESGGGVVRPGGSLRLSCAASGFAFGEYGMSWVRQAPGKGLEWVSGINWNGGSTGYADSVQGRFTTSRDNAKNSLYLQMNSLRAEDTALYYCARDENYDILTGNYYYGMDVWGQGTTVTVSSGGGGSGGGGSGGGGSQSVVTQPPSVSAAPGQKVTISCSGSSSNIGNNYVSWYQQLPGTAPKLLIYDNNKRPSGIPDRFSASKSGTSATLGITGLQTGDEADYYCGTWDSSLTVWAFGGGTKLTVLG
- fold inhibitory activity against human α9-dependent cell adhesion, against MA9-413 [3]: ~1000 fold
- IC50 of inhibition of α9-dependent cell adhesion [1]: 0.053 µg/mL
- IC50 of inhibition of α9-dependent cell adhesion [2]: 3.3 µg/mL

B5: HA9-212 IgG (antibody, V domains shown)
VH: EVQLVESGGGVVRPGGSLRLSCAASGFAFGEYGMSWVRQAPGKGLEWVSGINWNGGSTGYADSVQGRFTTSRDNAKNSLYLQMNSLRAEDTALYYCARDENYDILTGNYYYGMDVWGQGTTVTVSS
VL: QSVVTQPPSVSAAPGQKVTISCSGSSSNIGNNYVSWYQQLPGTAPKLLIYDNNKRPSGIPDRFSASKSGTSATLGITGLQTGDEADYYCGTWDSSLTVWAFGGGTKLTVLG
notes: VH joined to human IgG1 constant region; VL joined to 'human x chain constant region'; Tested as culture supernatant of COS-7 / FreeStyle 293-F cells
- binding result [4]: binds
